From PMC7350259

How the values were obtained:
[1] = target: human rhinovirus strain RV2 (purified virus) (human rhinovirus 2 (RV-A, minor group)); assay: ELISA; fluid phase competition: RV89 (25 µg/mL) or RV2 (2 µg/mL in the methods, 5 µg/mL in the results) pre-incubated with soluble receptor (50 µg/mL) overnight at 4 °C, then added to plate-bound receptor
[2] = target: human rhinovirus strain RV89 (purified virus) (human rhinovirus 89 (RV-A, major group)); assay: as above

Substance | percent inhibition of RV2 binding to plate-bound LDLR (50 µg/mL LDLR) [1] | percent inhibition of RV89 binding to plate-bound ICAM-1 (50 µg/mL ICAM-1, 25 µg/mL RV89) [2]
recombinant human low density lipoprotein receptor (LDLR) (from UniProt P01130 22-788) | > 60% | –
recombinant human ICAM-1/CD54 (intercellular adhesion molecule 1) (from UniProt P05362 28-480) (receptor) | – | > 95%
